PMC9512700, “Observation of conformational changes that underlie the catalytic cycle of Xrn2” (Nature Chemical Biology, 2022)

What was measured:
[1] = target: T1, CtXrn2 (Xrn2 WT, residues 1-875) (Thermochaetoides thermophila, UniProt G0S058); assay: 1H-13C HMQC methyl-TROSY NMR chemical shift perturbation; format: binding; conditions: 313 K; 5 mM MgCl2; 50 uM protein; 500 uM pAp; around active site
T1 construct: gene CTHT_0008830; Xrn core, residues 1-875, C-terminal tag LEHHHHHH kept, E. coli BL21(DE3) CodonPlus-RIL, 100 kDa, single chain; Ile-delta1/Met methyl-labelled for NMR
T1 sequence (G0S058 1-875): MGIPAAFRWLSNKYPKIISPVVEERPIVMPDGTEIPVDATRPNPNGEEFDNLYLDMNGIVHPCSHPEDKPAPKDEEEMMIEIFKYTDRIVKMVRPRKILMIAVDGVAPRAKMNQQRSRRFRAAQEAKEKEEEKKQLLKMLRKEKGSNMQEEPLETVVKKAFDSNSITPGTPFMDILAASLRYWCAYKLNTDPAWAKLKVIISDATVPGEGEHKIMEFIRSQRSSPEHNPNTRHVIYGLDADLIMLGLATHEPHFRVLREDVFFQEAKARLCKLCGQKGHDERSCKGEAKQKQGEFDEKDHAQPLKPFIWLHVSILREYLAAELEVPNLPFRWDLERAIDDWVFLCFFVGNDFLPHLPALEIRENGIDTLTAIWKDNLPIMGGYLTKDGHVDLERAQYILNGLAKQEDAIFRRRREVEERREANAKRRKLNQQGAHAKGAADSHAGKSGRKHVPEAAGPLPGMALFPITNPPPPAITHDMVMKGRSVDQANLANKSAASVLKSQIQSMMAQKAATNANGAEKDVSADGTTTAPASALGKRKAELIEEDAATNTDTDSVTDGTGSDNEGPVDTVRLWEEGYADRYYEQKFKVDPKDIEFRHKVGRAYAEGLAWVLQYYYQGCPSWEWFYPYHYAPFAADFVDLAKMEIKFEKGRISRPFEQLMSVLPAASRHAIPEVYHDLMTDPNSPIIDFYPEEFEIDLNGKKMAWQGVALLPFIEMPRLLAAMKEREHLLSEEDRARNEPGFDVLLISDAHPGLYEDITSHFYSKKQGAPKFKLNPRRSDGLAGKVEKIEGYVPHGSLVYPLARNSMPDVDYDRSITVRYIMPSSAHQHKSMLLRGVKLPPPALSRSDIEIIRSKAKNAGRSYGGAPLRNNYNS

[2] = target: T2, CtXrn2 (Xrn2 WT, residues 1-875) (Thermochaetoides thermophila, UniProt G0S058, A5F); assay: 1H-13C HMQC methyl-TROSY NMR; format: binding; conditions: 313 K; 5 mM MgCl2; 50 uM protein; 500 uM pAp
T2 construct: gene CTHT_0008830; Xrn core, residues 1-875, C-terminal tag LEHHHHHH kept, E. coli BL21(DE3) CodonPlus-RIL, 100 kDa, single chain; Ile-delta1/Met methyl-labelled for NMR

[3] = target: T3, CtXrn2 1-875 (WT) (Chaetomium thermophilum, UniProt G0S058 1-875); assay: fluorescence anisotropy; no Mg2+, with Zn2+; Fluorescence anisotropy: 25 mM HEPES pH 7.3, 125 mM NaCl, 0.002% Triton, no Mg2+, with Zn2+, temperature not stated (room temperature used for dG); NMR: 25 mM H; conditions: protein: recombinant; label: fluorescein on 3' thiouridine (6-iodoacetamido-fluorescein); single strand
T3 sequence: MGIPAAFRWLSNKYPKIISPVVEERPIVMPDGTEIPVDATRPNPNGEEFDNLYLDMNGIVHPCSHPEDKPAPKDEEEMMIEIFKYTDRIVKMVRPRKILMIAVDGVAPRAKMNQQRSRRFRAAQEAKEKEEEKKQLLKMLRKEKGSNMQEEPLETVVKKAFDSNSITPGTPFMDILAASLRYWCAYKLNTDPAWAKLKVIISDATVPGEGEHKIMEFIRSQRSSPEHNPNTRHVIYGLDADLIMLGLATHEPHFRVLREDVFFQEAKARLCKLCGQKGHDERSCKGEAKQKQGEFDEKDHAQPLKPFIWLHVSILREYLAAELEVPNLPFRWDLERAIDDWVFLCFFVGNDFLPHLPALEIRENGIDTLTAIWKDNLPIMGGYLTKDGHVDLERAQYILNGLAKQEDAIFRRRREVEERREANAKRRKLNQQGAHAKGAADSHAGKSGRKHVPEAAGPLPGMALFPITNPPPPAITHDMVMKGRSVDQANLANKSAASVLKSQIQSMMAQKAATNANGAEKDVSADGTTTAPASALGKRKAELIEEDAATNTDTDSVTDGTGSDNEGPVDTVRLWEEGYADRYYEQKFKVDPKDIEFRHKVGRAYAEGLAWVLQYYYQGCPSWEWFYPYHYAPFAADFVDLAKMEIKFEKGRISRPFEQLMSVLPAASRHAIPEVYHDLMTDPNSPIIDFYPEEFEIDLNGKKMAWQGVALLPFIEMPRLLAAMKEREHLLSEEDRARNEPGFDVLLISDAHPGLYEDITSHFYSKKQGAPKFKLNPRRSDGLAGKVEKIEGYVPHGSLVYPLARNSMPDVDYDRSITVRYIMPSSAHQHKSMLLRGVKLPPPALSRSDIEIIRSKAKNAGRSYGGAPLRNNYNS

[4] = target: T4, CtXrn2 deltaZnF (Chaetomium thermophilum, UniProt G0S058 1-875, del263-300); assay: as above; conditions: protein: recombinant; label: fluorescein on 3' thiouridine (6-iodoacetamido-fluorescein); single strand
T4 sequence: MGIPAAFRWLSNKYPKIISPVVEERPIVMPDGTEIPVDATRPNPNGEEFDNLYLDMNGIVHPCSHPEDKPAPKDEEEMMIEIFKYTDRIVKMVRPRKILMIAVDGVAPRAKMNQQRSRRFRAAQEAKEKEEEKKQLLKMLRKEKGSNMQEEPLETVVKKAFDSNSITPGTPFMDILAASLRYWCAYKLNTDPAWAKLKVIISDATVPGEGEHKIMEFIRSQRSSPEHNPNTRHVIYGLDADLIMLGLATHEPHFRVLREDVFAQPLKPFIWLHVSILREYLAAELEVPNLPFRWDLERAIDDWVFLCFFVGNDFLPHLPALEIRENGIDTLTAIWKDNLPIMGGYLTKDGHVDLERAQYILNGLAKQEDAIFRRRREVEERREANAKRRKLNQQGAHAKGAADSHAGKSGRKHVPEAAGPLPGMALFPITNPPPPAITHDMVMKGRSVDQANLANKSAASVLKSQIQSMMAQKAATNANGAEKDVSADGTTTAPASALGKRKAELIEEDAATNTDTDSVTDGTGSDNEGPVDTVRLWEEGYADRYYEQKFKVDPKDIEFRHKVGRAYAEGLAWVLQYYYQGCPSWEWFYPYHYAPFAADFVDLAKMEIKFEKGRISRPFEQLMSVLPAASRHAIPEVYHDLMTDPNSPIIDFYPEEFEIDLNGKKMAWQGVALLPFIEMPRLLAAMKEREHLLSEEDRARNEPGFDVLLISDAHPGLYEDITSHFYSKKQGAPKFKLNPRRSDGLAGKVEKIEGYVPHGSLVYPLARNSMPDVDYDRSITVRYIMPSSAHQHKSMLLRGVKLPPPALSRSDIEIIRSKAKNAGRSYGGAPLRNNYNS

[5] = target: T3, CtXrn2 1-875 (WT); assay: NMR (methyl-TROSY CSP of M704); no Mg2+; active state not formed; Fluorescence anisotropy: 25 mM HEPES pH 7.3, 125 mM NaCl, 0.002% Triton, no Mg2+, with Zn2+, temperature not stated (room temperature used for dG); NMR: 25 mM H; conditions: protein: recombinant; single strand
[6] = target: T3, CtXrn2 1-875 (WT); assay: NMR (methyl-TROSY CSP); 5 mM Mg2+; RNA trimmed at 5' end; locked in pre-translocation state; Fluorescence anisotropy: 25 mM HEPES pH 7.3, 125 mM NaCl, 0.002% Triton, no Mg2+, with Zn2+, temperature not stated (room temperature used for dG); NMR: 25 mM H; conditions: protein: recombinant; pseudoknot with unstructured 5' end

T2 sequence (G0S058 entry or part of it A5F): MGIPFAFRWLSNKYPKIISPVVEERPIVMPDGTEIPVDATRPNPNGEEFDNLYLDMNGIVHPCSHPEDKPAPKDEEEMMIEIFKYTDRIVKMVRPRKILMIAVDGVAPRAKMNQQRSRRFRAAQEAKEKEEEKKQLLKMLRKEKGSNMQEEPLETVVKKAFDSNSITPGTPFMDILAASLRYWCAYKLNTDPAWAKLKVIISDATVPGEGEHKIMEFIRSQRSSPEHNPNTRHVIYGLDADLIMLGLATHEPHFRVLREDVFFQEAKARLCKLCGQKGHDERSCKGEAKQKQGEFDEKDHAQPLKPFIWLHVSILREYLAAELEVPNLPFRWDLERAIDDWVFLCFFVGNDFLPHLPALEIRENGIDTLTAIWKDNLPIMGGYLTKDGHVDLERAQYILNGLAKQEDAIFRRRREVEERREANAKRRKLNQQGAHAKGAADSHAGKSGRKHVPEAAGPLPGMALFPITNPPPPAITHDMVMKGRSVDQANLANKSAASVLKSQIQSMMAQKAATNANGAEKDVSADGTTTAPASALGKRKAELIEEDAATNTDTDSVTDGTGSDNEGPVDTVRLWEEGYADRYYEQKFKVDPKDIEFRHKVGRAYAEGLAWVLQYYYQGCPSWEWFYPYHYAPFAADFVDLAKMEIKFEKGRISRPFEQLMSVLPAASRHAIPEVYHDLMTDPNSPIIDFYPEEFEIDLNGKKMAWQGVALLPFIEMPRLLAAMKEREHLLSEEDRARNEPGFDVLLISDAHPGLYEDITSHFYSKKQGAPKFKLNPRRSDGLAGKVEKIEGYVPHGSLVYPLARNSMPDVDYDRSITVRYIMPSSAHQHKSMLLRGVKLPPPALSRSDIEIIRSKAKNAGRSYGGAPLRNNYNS

Row | Molecule | binding result [3] | binding signal [4] | also measured
1 | Nc1ncnc2c1ncn2[C@@H]1O[C@H](COP(=O)(O)O)[C@@H](OP(=O)(O)O)[C@H]1O [pAp] |  |  | 1H-13C HMQC methyl-TROSY NMR chemical shift perturbation [1]: The binding of pAp to Xrn2 resulted in substantial chemical shift perturbations; 1H-13C HMQC methyl-TROSY NMR [2]: HMQC spectra of the Xrn2 WT:pAp complex (black) and Xrn2 A5F:pAp complex (orange)
2 | GGAGU (ssRNA, 5'-monophosphate; 3'-terminal 4-thiouridine) [5-mer RNA] | binds | 1.5 fold Kd increase vs WT | 
3 | AAAAA (ssDNA, 5'-phosphate) [pdA5] |  |  | binding result [5]: binds
4 | GGAGGAGAGU (ssRNA, 5'-monophosphate; 3'-terminal 4-thiouridine) [10-mer RNA] | binds | ~3 fold Kd increase vs WT | 
5 | ZIKV xrRNA (structured_RNA, 5'-monophosphate) RNA: GGGAGUGUUGUAAGCACCAAUUUUAGUGUUGUCAGGCCGGCGAAAGUCGCCACAGUUUGGGGAAAGCUGUGCAGCCUGUAACCCCCCCACGAAAGUGGG |  |  | binding result [6]: binds
